Target: T1, His-Lmo2795 (RpiR family regulator) (UniProt Q8Y3P0)
T1 sequence: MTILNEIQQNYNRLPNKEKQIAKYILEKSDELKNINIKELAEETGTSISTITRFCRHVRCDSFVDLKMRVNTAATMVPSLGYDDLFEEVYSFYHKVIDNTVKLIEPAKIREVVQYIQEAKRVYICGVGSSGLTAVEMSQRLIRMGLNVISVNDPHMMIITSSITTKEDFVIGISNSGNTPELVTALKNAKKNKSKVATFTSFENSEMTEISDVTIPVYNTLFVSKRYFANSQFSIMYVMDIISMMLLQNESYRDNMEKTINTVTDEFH
Assay: EMSA

**Q.** “CGGAACACCCAACAAATTACCAATCGAATAAACTAACAAAGTCCTTTCAAGCGAAAGGACTTTTTATTTTTAACAGCAACGTCATTTTTTAAAGCTAGTTTCCGCAACTATCCACGCTAAAACATGAAAATCATTTTCATTTAATTGATATTGATAAAATCATTTTCTTATGATATAGTCTGTTTGAAAACGCATACTTTACACTGAAACACAGTATAGAGGAGGAGTATCAGTGGGCAATTCTGTTATGGAAAAAATCAAAGGTGGGTTAG (double strand) [lmo2795-nanE upstream (promoter) fragment]” was tested. Which binding did it give?
**A.** binds
